The record followed here is publication PMC5121632.

Where “and” joins values, the source holds several entries; their conditions need not be identical. Equal entries are not always repeated.

Data set [1] deals with CT-TALE (dAvrBs3 TALE without periodic non-RVD mutations at repeat positions 4 and 32). Kind of data set: ITC. Conditions: ITC: 50 mM Tris-HCl pH 8.0, 200 mM NaCl, 1 mM DTT, 5% glycerol; 15 and 25 °C; 96 μM DNA injected into TALE; single-site model.
Data set [2] relates to VT-TALE (dAvrBs3 TALE with periodic non-RVD mutations at repeat positions 4 and 32). Put plainly: ITC. To be noted: ITC: 50 mM Tris-HCl pH 8.0, 200 mM NaCl, 1 mM DTT, 5% glycerol; 15 and 25 °C; 96 μM DNA injected into TALE; single-site model.

The term Kd denotes the equilibrium constant for the complex coming apart. A high value points to lower affinity. On to “GGGTATACTCACACAATAGCTGGG (double strand) [EBEf]”, for which the Kd is 0.139 µM and 0.346 µM in data set [1]; 0.131 µM and 0.326 µM in data set [2].
For “GGGTATACTCACTGGGTGTGGGGG (double strand) [EBEn]”, the Kd was 0.109 µM and 0.305 µM in data set [1]; 0.117 µM and 0.262 µM in data set [2].
